Reference: the RNAGym collection of RNA variant scans (doi:10.1021/acssynbio.7b00057)

B1: Pistol ribozyme (parent)
chain: GGGUCGUUGUUCCAUAAUCGCGUGGAUAUGGCACGCAAGUUUCUACCGGGCACCGUAAAUGUCCGACUGGAGCCGUUCGGGCGGCUAUAAACAGACCUCAGGCCCGAAGCGUGGCGGCACCUGCCGCCGGUGGUAAAAAAGAUCGGAAGAGCACACGUCU

Variants of: B1
Assay: aptazyme ON/OFF ratio, guanine; higher = stronger switching; co-transcriptional cleavage with and without guanine

Variant | aptazyme ON/OFF ratio
U7A U8A U11C C13A | 1.4
U7A U8A U11C C13G | 1.09
U7A U8A U11C C13U | 1.23
U7A U8C G9A U10G U11A | 1.03
U7A U8C G9A U10G U11C | 1.04
U7A U8C G9A U10G U11G | 1.08
U7A U8C G9A U10C C12G C13U | 1.23
U7A U8C G9A U10C C12G C13G | 1.16
U7A U8C G9A U10C C12G C13A | 1.12
U7A U8A U11A C12G C13U | 1.16
U7A U8A U11A C12G C13G | 1.13
U7A U8A U11A C12G C13A | 1.17
U7A U8C G9A U10A U11A C12A C13A | 1.11
U7A U8C G9A U10A U11A C12A C13G | 1.18
U7A U8C G9A U10A U11A C12A C13U | 1.25
U7A U8A U11A C12A C13G | 1.28
U7A U8A U11A C12A C13U | 1.26
U7A U8A U11A C12A C13A | 1.33
U7A U8C G9A C12G C13U | 1.2
U7A U8C G9A C12G C13G | 1.12
U7A U8C G9A C12G C13A | 1.13

Variant | aptazyme ON/OFF ratio
U7A U8A U11C C12A C13U | 1.69
U7A U8A U11C C12A C13A | 1.02
U7A U8A U11C C12A C13G | 1.42
U7A U8A U11A C12A | 1.44
U7A U8A U11A C12G | 1.2
U7A U8A U11A C12U | 1.31
U7A U8C G9A U10G U11G C12U C13A | 1.29
U7A U8C G9A U10G U11G C12U C13G | 1.33
U7A U8C G9A U10G U11G C12U C13U | 1.07
U7A U8C G9A U10C | 2.35
U7A U8C G9A U10A | 1.37
U7A U8C G9A U10G | 1.37
U7A U8C G9A C13A | 1.14
U7A U8C G9A C13U | 1.18
U7A U8C G9A C13G | 1.04
U7A U8C G9A U10A U11G C13A | 1.12
U7A U8C G9A U10A U11G C13G | 1.12
U7A U8C G9A U10A U11G C13U | 1.17
U7A U8A U10G U11G C13U | 1.5
U7A U8A U10G U11G C13A | 1.07
U7A U8A U10G U11G C13G | 1.12

Variant | aptazyme ON/OFF ratio
U7A U8C G9A U11C | 1.04
U7A U8C G9A U11A | 1.25
U7A U8A U11C C12U | 1.48
U7A U8A U11C C12A | 1.36
U7A U8A U11C C12G | 1.17
U7A U8C G9A U10A U11C C12U C13U | 1.05
U7A U8C G9A U10A U11C C12U C13G | 1.15
U7A U8C G9A U10A U11C C12U C13A | 1.12
U7A U8C G9A U10C U11C | 1.08
U7A U8C G9A U10C U11G | 1.16
U7A U8C G9A U10C U11A | 1.24
U7A U8A U10G U11G C12A | 1.3
U7A U8A U10G U11G C12U | 1.46
U7A U8A U10G U11G C12G | 1.33
U7A U8C G9A C12A C13A | 1.18
U7A U8C G9A C12A C13G | 1.14
U7A U8C G9A C12A C13U | 1.16
U7A U8C G9A U10G U11C C13G | 1.06
U7A U8C G9A U10G U11C C13U | 1.05
U7A U8C G9A U10G U11C C13A | 1.06
U7A U8C G9A U10C U11C C12U C13A | 1.05

Variant | aptazyme ON/OFF ratio
U7A U8C G9A U10C U11C C12U C13G | 1.03
U7A U8C G9A U10C U11C C12U C13U | 1.04
U7A U8C G9A U10G U11C C12A C13U | 1.23
U7A U8C G9A U10G U11C C12A C13G | 1.25
U7A U8C G9A U10G U11C C12A C13A | 1.18
U7A U8A U10G U11A C12U | 1.24
U7A U8C G9A U10C U11A C12G C13A | 1.1
U7A U8C G9A U10C U11A C12G C13G | 1.22
U7A U8C G9A U10C U11A C12G C13U | 1.09
U7A U8C G9A U10A U11G C12G C13U | 1.11
U7A U8C G9A U10A U11G C12G C13A | 1.11
U7A U8C G9A U10A U11G C12G C13G | 1.31
U7A U8C G9A U10C U11C C12A | 1.18
U7A U8C G9A U10C U11C C12G | 1.11
U7A U8C G9A U10C U11C C12U | 1.04
U7A U8A U11C C12G C13U | 1.46
U7A U8A U11C C12G C13G | 1.24
U7A U8A U11C C12G C13A | 1.25
U7A U8C G9A U11A C12U C13G | 1.13
U7A U8C G9A U11A C12U C13A | 1.25
